Experimental data as given in a protein production outcome set (Wang et al. 2014).

Assay: label from the status in PepcDB records

Sequence | protein production
MAPQSHGRSRINSIDMMRGLVMLIMLLDHVREQFFLHMQVSDPMDLSTTTWDLFVSRFAAHFCAPVFVFLTGVSAWLYANRGHGEPRSVRVFLLKRGLFLIALEVLVINFSWMGNYHTLWLQVIWVIGLSMLALAALIKLPRLWMALLGLLIVFGHNLLSPIHFEPDTWGYSLWTILHDRGYLIAEGDLKLKVSYPLLPWIGVILLGYVAGPLFSRKFEAWQRQQRLMLLGVGCFAFFCLLRGFNLYGETLPWQVGESIGQTLMSVFNLTKYPPSLSFLLVTLGGMFCGLVLFERYFAAGSLFSWIGQKLAVFGSVPMFFYILHLYVLLLLYLVAKGLFGANHGELFGVAHMGWVWLISLVLIPLLYYPVSWFSRYKSQSQQAWLKYL | failed
MTALAVTLKNWFFTRNSMILNANILLFIILFNTLPFEPQVVTGISILVFVAILWLTEAIHVSITALLIPMLAVFLGVFNTQAALNNFSNSIIFLFLGGFALAAALHKQKLDQALADKVLLIARGRMSVAVFMLFGVSAGLSMWISNTATAAMMLPLVLGVMTKLDAKKNHNTFLFVLLGIAYSASIGGIATLVGSPPNAIAAAEVGLNFTEWMKLGLPISLILMPIAILVLYTMTKPDLSHKFELDHKPVEWTNGKMVTLAIFLLTVTLWIFSKPINTMLGGFAKFDTLVAIGAILLLGASRAVEWKDIEKTTDWGVLILFGGGICLSNVLKATGTSVFLAHSLTGFLEQAGVLLTILSVVAFVVFLTEFASNTASAALLVPVFATIAEALGLSPVILSALIAVAASCAFMLPVATPPNAIVFGTGHIKQKEMMRIGFVLNIACIGALTLFAWLFW | failed
MRLVSLLPSATEIIAALGLLPFLVGRSHECDYPPEVKALPVCTRARLNAQQSSLAIDRVVQELLRAALGIYDLELATLQALKPTHIITQDQCDVCAVTLPDVQRAIADLLEPPPQLISLQPHCLEDIWEDIRRVGLTLGVAPDPLLTVLKERMRACQRRVSDRPRRQVVAIEWIDPPMASGNWIPELIALAGGENMLGTAGKHSPYIEWSTLLAIDPEVILVMPCGFDLERTRQELDQALQTYPQWQQLRALQTGQLYILDGNAYFNRPGPRLVDSLEILVEILHPCPEPKFHGVGWRPYVGPSMAKMSDEG | failed
MEGSSSTIARKTWELENSILTVDSPDSTSDNIFYYDDTSQTRFQQEKPWENDPHYFKRVKISALALLKMVVHARSGGTIEIMGLMQGKTDGDTIIVMDAFALPVEGTETRVNAQDDAYEYMVEYSQTNKLAGRLENVVGWYHSHPGYGCWLSGIDVSTQRLNQQHQEPFLAVVIDPTRTVSAGKVEIGAFRTYSKGYKPPDEPVSEYQTIPLNKIEDFGVHCKQYYSLDVTYFKSSLDSHLLDLLWNKYWVNTLSSSPLLGNGDYVAGQISDLAEKLEQAESHLVQSRFGGVVPSSLHKKKEDESQLTKITRDSAKITVEQVHGLMSQVIKDELFNSMRQSNNKSPTDSSDPDPMITY | failed
MDEDGFSQCSKHFSKRGYFSGGGVCPFCLHERLSSLCPDCAHDLPCSCSSRAAVSFSPSSSSSSSSFSIFAGDISFNISGVGSVGRVASLIECEPAFRRSKSMAIPIKPDSVIDSGLDHGRSKKTSSFWRIFMGNRGDTKPAIMKKSRSVAVAGEFGFSPVPVPATGKGKGWNFPSPIKVFRQSRVSKMIFQQRSPLYRG | failed
MTLTLGEFIKILEATGYPVAYSHFTATPGNPVPAPPYICFLVDGSANLMADNKVYHKINDVNIELYTTKKDLVAEAKLEQVLDDHEIPYGSYGTFIESENMYQKFYETRLI | failed
MAGRFAPRPPRAVVRDGIPRQALAPGRVRVWAPDGPLDVGLVLGPLRRGPGDPTFRTMPDGSVWRTGRTPAGPGTLRVTARGGEVRGEAWGPGAEWLLERLPLMLGAEDDPSAFVPRHRLLAVTAHRRPGLRLTRTGLVLESLIPSILEQKVTTLEAYQAWRLLVRKFGEPAPGPAPGRMCVMPAARTWALIPSWEWHLAGVDDKRASTVLRAVRVAARLEEAAGMEPAAARERLELVPGVGPWTSAETVQRSHGAPDAVTVGDLHLPGIVGFALGGDRYADDAEMLRLLEPYAGQRHRAARLVLLSGRVPERRAPRMAPRGIERL | failed
MTKFNYKSSLYLFNTIFLISLTTLGTMVMIPFAVESKIPKKTSNSISPFCKVLSEKFSPFGAAPDLSVALGKAIAEGGNLNQPCDIFGEKWLPLNFLLSTDEELSQRLIQTGVNVNAKDGKGDTPLHYLGKSEKNARLLLSRGAKVNVGNQNGNTPLHNLFGQKTAYVIKLLIDRGAKVNARNQEQMTPLHFAANSGKADITELLISRGGDVNARSTQNWTPLHYGASNLEVAKKLIQAGADLTIQNREGAVIHSSSLEPAVLKLLLDRGVNVNLRNRQGQTPLHIHRFQPALVKLLLARKAQVNLRDAQGKTPLYDVNLEVARQLVAANADLNVQDNLGRTPLHQAVLEEQSFFGSELVTLFLSKNARVDLKDKQGKTALDLARQLNKTQIINLLERHMATKNSPGSGTSTTKATEQLQQFLKSKNWSAADQETRRLLSPQKDLFGLNAATIPLDLIQEIDRAWLVASDGRFGLSVQAKIWQKVIASHPNNSETAANTFRDRVGWKLKVARTENDFISSDWLNESELNYSLQAPVGHLPWAGVSDASVLSLAVPPPGEHCGSCTIDAMFLRDGRFYKYLPQLFARVKMALNMNVSRPKSLAIAKK | failed
MGKIQELSEQLANQIAAGEVVERPASVVKELVENALDAGSTQIDIFIEEAGLKTIQIIDNGEGIAKEDVLNAFKRHATSKIHTRDDLFRIRSLGFRGEALPSIASVSEMIVETATAEEEEGSYVILKGGKVEENRPAALRKGTKMTVSNLFYNTPARLKYVKTIQTELANIGDIVNRLALSHPKVAFRLVHDGHKMMSTTGNGDLKQTIAGIYGISTAKKMLKIEGKDLDFTLTGYVSLPEVTRASRNYLSTIINGRYIKNFALNKAIVAGYGSKLMVGRFPIAVLEIEMDPLLVDVNVHPTKQEVRLSKEKDLMALIEQAIQEVLSQEQLIPNAADNLRFKKKLPPEPKAEQMEIPLSTEQPAVKQRPGSLSYNPATGRFYAEHATDETPASSAPEAVNQTERAVDPMDDPFAPPVPESTSVAEETSAYETSSAAADSANHWETASNEQQVIAEETKITEVPDSEPSLRSSEAADEVFQEEMKLHPEFDANSAASQRELKQALNKLEEERPTERFPELEYFGQMHGTYLFAQSKDGLFIIDQHAAQERIKYEYFREKIGEVSDDLQELLVPIVIDYPNSDALKIKEQKETLAEVGIHLEDFGQNSFIVRAHPTWYPAGEEESIVREMIDMLLTTGSVSVKKFREATAIMMSCKRSIKANHYLNEQQARVLLKDLALCENPFNCPHGRPVLIHFTNSDMERMFKRIQDPH | failed
MNVEGMATGGIHMELHCPKCQHVLDQDNGHARCPSCGEFIEMKALCPDCHQPLQVLKACGAVDYFCQHGHGLISKKRVEFVLALEHHHHHH | failed
DAGGGVGKELVDLKIIWNKTKHDVKVPLDSTGSELKQKIHSITGLPPAMQKVMYKGLVPEDKTLREIKVTSGAKIMVVGSTI | not failed
MEMTNAQRLILSNQYKMMTMLDPANAERYRRLQTIIERGYGLQMRELDREFGELKEETCRTIIDIMEMYHALHVSWSNLQDQQSIDERRVTFLGFDAATEARYLGYVRFMVNVEGRYTHFDAGTHGFNAQTPMWEKYQRMLNVWHACPRQYHLSANEINQIINA | not failed
MGLFDEVVGAFLKGDAGKYQAILSWVEEQGGIQVLLEKLQSGGLGAILSTWLSNQQRNQSVSGEQLESALGTNAVSDLGQKLGVDTSTASSLLAEQLPKIIDALSPQGEVSAQANNDLLSAGMELLKGKLFR | not failed
MWAGMYPSQPDQVKSKPTYILNYFINPMTGSDILGLLMVYVYVAVLLLVSERFLGDRPNLSRKFVHIMVGNILFILPLFESRLVITFLAAAPFILITFLLSPYSPLRVKHRASSYGHGLGLVYYSISWTILAYLFFEAPWITGIGIAAMSYGDGFASLTGERFGRTTFSVLGDKKSLEGSLGMFIILLVMLPVVLTYYSQGFTPYLILGVALVSTVLEALTPRGLDNLTACFGAVAAYILLGGMGI | failed
SQPQQGKQYEVLPVSLQEYNLAPLTEAFALTCGHCRSMEEFVPQIESLTEQKVEKMHVTFNESAQISAIIFYTAVMQLDATPDKAFMADLFAAVQMGADATAEERQQAVEKAFESRNLISPYHLDEAQQEKLFEYITKAESITTRGQINSVPAFIVNGKYQVITGGHDSVEAMAETINYLLKQ | not failed
MENSDDIRLIVKIAQLYYEQDMTQAQIARELGIYRTTISRLLKRGRDQGMVTIAINYDYNENLWLEQQLKQKFGLKDVVVVSGNDEDEETQLAMMGLHGAQLLDRLLEPGDIVGFSWGRAVSALVENLPQAGQSRQLICVPIIGGPSGKLESRYHVNTLTYSAAAKLKGESHLADFPALLDNPLIRNGIMQSQHFKTISAYWDNLDIALVGIGSPAIRDGANWHAFYGGEESDDLNARQVAGDICSRFFDIHGAMVETNMSEKTLSIEMNKLKQARYSIGIAMSEEKYSGIIGALRGKYINCLVTNSSTAELLLK | not failed
MITVSIVSHGQSTLVEQLLADLVRLDMSMVTEVLVTLNIPEDISSKPGDYPYPVRILRNTAARGFGANHNAAFRQAEGEWFCVMNPDIRLINNPFPILIEEGAYDSAGVIAPMVVTPSGMIEDSVRCFPVLTSLAAKLFGHGDGRYLFAAGDEAFAADWVAGMFMLFRTEDFRAVGGFDEGFFLYYEDVDICARLWKSGRSVLACPKASVIHDARRSSRRNLRYMKWHALSLIRYFWKHWGRLPQTPEQLEHHHHHH | not failed
MKIGVIQASTRTDLNQLLFEAVKQAAGNQHEIVNFGVFPQETENYSYVEVAIMISLLIETGAIDFMVSGCSSGQGMMMACNSLPGLQAGFIQTPQDAFLFGRINNGNVASLSLGLNFGWAGELNLQYALNELFHGEFGIGYPPEVAERKREEAQLLLTLNDITKKSFLEIIDQLDKALLFKILKRKDLTAYLFDYGSNSLLLERLQFFRN | failed
MEKEIKEKNLPLELTLVEASPRVGGKIQTVKKDGYIIERGPDSFLERKKSAPQLVKDLGLEHLLVNNATGQSYVLVNRTLHPMPKGAVMGIPTKIAPFVSTGLFSLSGKARAAMDFILPASKTKDDQSLGEFFRRRVGDEVVENLIEPLLSGIYAGDIDKLSLMSTFPQFYQTEQKHRSLILGMKKTRPQGSGQQLTAKKQGQFQTLSTGLQTLVEEIEKQLKLTKVYKGTKVTKLSHSGSCYSLELDNGVTLDADSVIVTAPHKAAAGMLSELPAISHLKNMHSTSVANVALGFPEGSVQMEHEGTGFVISRNSDFAITACTWTNKKWPHAAPEGKTLLRAYVGKAGDESIVDLSDNDIINIVLEDLKKVMNINGEPEMTCVTRWHESMPQYHVGHKQRIKELREALASAYPGVYMTGASFEGVGIPDCIDQGKAAVSDALTYLFS | failed
PVEEVMPVLEEKERSASYKPVFVTEITDDLHFYVQDVETGTQFQKLMENMRNDIASHPPVEGSYAPRRGEFCIAKFVDGEWYRARVEKVESPAKIHVFYIDYGNREVLPSTRLGTLSPAFSTRVLPAQATEYAFAFIQVPQDDDARTDAVDSVVRDIQNTQCLLNVEHLSAGCPHVTLQFADSKGDVGLGLVKEGLVMVEVRKEKQFQKVITEYLNAQESAKSARLNLWRYGDFRADDADEFGYSR | not failed
MYILIGGMGSMGSNLAKNLLKMGHTVAAVDTDPLACQYAREKIGVMAFEGSAVNTSVLLEAGVRKAGAVIAALQEDALNLALVTLSKHYGVPQIVVRMSDGDFAEPYRLAGATHIISTTELALNRVINAIEYPQVDAMMHFEQGQIEVLKLSIPPNCTIVGRSVAAIAQDPRFPSGTLIIGYQANAHEDLKIPNGNTLLEDGSTILAVTKPELVRQLIDFMGLCQS | failed
MLPSESTLLTNATILTGTGERINNGDILLVNGKVTQVGNNLSVEQATVIDMKGKWITPGIIDVHSHLGVYPNPEVLEHHHHHH | not failed
